The series has as its target T1, M2Y DNA polymerase-His10 (polymerase A) (Bacteriophage M2Y) (UniProt P19894).
T1 sequence: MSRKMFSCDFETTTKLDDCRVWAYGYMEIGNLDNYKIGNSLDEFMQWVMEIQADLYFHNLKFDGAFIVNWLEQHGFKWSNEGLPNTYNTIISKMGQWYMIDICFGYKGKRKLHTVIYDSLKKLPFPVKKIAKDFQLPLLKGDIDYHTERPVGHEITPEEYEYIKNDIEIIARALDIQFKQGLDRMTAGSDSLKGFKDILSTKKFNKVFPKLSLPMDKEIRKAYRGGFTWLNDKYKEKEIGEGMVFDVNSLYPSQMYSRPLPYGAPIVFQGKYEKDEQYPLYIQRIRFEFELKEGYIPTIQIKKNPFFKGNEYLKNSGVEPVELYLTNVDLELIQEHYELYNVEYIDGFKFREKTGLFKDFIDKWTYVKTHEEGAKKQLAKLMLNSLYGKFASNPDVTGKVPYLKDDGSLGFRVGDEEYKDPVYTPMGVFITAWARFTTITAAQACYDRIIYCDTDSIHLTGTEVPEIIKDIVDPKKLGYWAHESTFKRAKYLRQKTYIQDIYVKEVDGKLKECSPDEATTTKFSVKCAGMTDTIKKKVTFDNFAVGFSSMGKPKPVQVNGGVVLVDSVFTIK
Particulars: average amplification per round over two rounds.

FMR1 genomic fragment SMRTbell registered an activity of 177 fold.
